Laboratory results as given in paper PMC12881670, “Investigation into ligand selectivity and bias at the formyl peptide receptor family” (The Journal of Pharmacology and Experimental Therapeutics, 2025).
Where no end group is shown, it is not given here. [ ]: non-standard residue; d: D form.

Columns and labels:
[1] = target: T1, FLAG-Mm_Fpr1 C-terminally fused to Renilla Luciferase 8 (mouse, UniProt P33766 1-364); assay: cell-based or functional assay
T1 sequence (looked up): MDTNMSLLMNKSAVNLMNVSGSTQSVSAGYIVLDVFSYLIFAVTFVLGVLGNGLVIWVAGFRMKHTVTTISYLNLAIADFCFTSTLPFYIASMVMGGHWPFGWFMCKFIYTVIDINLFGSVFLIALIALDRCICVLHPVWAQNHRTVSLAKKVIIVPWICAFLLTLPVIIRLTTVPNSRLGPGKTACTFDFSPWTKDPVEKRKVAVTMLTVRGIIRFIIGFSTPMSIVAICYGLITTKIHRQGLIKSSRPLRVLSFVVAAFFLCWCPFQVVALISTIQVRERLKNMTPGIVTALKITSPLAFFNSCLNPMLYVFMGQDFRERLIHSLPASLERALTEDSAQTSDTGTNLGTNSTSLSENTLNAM

[2] = target: T2, FLAG-Mm_Fpr2 C-terminally fused to Renilla Luciferase 8 (mouse, UniProt O88536 1-351); assay: cell-based or functional assay
T2 sequence (looked up): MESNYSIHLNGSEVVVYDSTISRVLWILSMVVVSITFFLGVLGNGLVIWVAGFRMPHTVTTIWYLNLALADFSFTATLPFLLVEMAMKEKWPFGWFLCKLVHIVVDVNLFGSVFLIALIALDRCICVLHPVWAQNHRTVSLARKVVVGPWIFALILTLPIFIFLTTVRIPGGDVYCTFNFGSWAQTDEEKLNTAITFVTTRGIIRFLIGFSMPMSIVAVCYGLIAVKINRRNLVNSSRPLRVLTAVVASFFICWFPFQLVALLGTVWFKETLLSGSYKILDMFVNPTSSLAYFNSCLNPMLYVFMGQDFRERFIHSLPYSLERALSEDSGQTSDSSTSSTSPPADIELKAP

[3] = target: T1, FLAG-Mm_Fpr1 C-terminally fused to …; assay: cell-based or functional assay; remark: listed apart in the source
[4] = target: T3, FLAG-Hs_FPR1 C-terminally fused to Renilla Luciferase 8 (human, UniProt P21462 1-350); assay: cell-based or functional assay
T3 sequence (looked up): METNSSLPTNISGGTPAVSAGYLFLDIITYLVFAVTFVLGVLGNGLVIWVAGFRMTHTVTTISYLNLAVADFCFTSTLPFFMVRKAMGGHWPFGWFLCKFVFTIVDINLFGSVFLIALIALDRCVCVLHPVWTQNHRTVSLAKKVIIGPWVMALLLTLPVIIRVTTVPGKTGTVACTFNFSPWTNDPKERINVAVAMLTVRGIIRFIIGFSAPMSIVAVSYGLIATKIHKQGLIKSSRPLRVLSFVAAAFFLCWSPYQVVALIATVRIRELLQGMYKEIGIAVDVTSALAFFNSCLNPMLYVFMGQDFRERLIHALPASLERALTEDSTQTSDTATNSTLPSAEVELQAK

[5] = target: T4, FLAG-Hs_FPR2 C-terminally fused to Renilla Luciferase 8 (human, UniProt P25090 1-351); assay: cell-based or functional assay
T4 sequence (looked up): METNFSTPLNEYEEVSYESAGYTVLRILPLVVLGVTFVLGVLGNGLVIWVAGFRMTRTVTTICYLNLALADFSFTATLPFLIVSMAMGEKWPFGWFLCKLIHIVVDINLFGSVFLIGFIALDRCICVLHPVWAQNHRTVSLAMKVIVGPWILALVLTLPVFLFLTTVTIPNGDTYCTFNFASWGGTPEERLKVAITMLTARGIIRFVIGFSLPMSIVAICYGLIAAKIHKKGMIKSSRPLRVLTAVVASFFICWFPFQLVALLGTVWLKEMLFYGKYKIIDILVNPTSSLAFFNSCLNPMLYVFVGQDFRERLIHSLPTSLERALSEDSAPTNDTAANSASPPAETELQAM

[6] = target: T5, FLAG-tagged mouse Fpr1 (Mm_Fpr1) (mouse, UniProt P33766 1-364); assay: flow cytometry on cells; competition binding: HEK293 cells stably expressing the receptor, lifted in PBS, on ice 90 min with 10 nM K(5/6-FAM)-WKYMVm and increasing unlabeled ligand; mean fluorescence of 5000 cells as % of that without competitor; One site-Fit logIC50
T5 construct: mouse formyl peptide receptor 1; cDNA purchased (ThermoFisher); source: HEK293, stably expressed, on cells; not shown: FLAG, N-terminal, kept
T5 sequence (looked up): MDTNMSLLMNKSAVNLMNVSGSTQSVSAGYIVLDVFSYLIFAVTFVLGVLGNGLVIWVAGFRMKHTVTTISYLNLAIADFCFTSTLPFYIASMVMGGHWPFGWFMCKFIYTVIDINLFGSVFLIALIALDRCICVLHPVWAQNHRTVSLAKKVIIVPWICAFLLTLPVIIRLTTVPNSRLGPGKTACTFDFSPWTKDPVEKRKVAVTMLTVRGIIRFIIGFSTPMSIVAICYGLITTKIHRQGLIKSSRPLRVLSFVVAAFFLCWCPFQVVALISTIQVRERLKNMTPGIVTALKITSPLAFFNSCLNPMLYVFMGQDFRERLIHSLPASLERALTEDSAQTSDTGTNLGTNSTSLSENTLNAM

[7] = target: T6, FLAG-tagged human FPR2 (Hs_FPR2) (human, UniProt P25090 1-351); assay: as above
T6 construct: human formyl peptide receptor 2; also called hFPR2; source: HEK293, stably expressed, on cells; not shown: FLAG, N-terminal, kept
T6 sequence (looked up): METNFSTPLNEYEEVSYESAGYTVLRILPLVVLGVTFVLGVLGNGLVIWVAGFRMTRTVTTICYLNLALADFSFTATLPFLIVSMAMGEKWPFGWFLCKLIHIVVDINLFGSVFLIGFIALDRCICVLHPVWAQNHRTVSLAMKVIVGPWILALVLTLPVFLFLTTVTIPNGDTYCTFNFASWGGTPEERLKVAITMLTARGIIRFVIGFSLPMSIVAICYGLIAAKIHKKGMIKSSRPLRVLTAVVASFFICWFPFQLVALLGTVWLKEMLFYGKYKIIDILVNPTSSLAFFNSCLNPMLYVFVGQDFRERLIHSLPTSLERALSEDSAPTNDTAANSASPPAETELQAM

[8] = target: T7, FLAG-tagged mouse Fpr2 (Mm_Fpr2) (mouse, UniProt O88536 1-351); assay: as above
T7 construct: mouse formyl peptide receptor 2; cDNA purchased (ThermoFisher); source: HEK293, stably expressed, on cells; not shown: FLAG, N-terminal, kept
T7 sequence (looked up): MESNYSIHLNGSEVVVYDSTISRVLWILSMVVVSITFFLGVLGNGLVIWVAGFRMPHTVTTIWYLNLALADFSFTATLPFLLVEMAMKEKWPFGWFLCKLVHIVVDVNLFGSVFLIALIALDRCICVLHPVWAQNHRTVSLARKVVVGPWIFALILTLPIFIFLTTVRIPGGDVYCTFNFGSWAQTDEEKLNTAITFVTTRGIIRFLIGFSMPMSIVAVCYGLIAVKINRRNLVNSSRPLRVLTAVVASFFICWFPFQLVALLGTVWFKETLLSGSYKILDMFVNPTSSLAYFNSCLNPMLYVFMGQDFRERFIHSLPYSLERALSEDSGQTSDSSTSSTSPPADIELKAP

[9] = target: T8, FLAG-tagged human FPR1 (Hs_FPR1) (human, UniProt P21462 1-350); assay: cell-based or functional assay
T8 sequence (looked up): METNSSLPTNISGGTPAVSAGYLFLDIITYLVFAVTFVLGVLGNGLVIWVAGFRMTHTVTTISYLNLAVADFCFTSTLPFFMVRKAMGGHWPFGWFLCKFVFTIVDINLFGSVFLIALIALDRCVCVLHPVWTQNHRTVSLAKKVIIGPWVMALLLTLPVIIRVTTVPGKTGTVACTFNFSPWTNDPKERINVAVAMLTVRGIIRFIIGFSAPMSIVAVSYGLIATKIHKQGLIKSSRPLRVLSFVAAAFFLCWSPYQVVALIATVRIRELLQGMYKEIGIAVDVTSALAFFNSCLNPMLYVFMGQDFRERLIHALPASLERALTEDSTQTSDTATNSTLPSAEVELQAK

[10] = target: T5, FLAG-tagged mouse Fpr1 (Mm_Fpr1); assay: cell-based or functional assay
[11] = target: T6, FLAG-tagged human FPR2 (Hs_FPR2); assay: cell-based or functional assay
[12] = target: T7, FLAG-tagged mouse Fpr2 (Mm_Fpr2); assay: cell-based or functional assay

B1: WKYMVm (peptide)
peptide: WKYMV[dM]
notes: the last residue is the D form; the bought peptide is probably also an amide (surmise); source: bought: Tocris
[1]
  BRET of receptor-RLuc8 with Venus-mGsi: Emax (% of 1 μM WKYMVm): 109%
  BRET of receptor-RLuc8 with Venus-mGsi: Log EC50 (M): -6.69 log M
[2]
  BRET of receptor-RLuc8 with Arrestin 3-YFP: Emax (% of 1 μM WKYMVm): 101%
  BRET of receptor-RLuc8 with Arrestin 3-YFP: Log EC50 (M): -7.46 log M
[3]
  BRET of receptor-RLuc8 with Arrestin 3-YFP: Emax (% of 1 μM WKYMVm): 112%
  BRET of receptor-RLuc8 with Arrestin 3-YFP: Log EC50 (M): -6.8 log M
[4]
  BRET of receptor-RLuc8 with Arrestin 3-YFP: Emax (% of 1 μM WKYMVm): 105%
  BRET of receptor-RLuc8 with Arrestin 3-YFP: Log EC50 (M): -7.3 log M
[5]
  BRET of receptor-RLuc8 with Arrestin 3-YFP: Emax (% of 1 μM WKYMVm): 102%
  BRET of receptor-RLuc8 with Arrestin 3-YFP: Log EC50 (M): -8.13 log M
[6]
  Log IC50: -6.79 log M
  Max Comp (%): 97%
[7]
  Log IC50: -7.7 log M
  Max Comp (%): 100%
[8]
  Log IC50: -7.18 log M
  Max Comp (%): 97.5%
[9]
  ERK1/2 phosphorylation (Western blot): Emax (% of 1 μM WKYMVm): 104%
  ERK1/2 phosphorylation (Western blot): Log EC50 (M): -9.1 log M
[10]
  ERK1/2 phosphorylation (Western blot): Emax (% of 1 μM WKYMVm): 102%
  ERK1/2 phosphorylation (Western blot): Log EC50 (M): -8.43 log M
[11]
  ERK1/2 phosphorylation (Western blot): Emax (% of 1 μM WKYMVm): 93.8%
[12]
  ERK1/2 phosphorylation (Western blot): Emax (% of 1 μM WKYMVm): 118%
  ERK1/2 phosphorylation (Western blot): Log EC50 (M): -9.06 log M
